Patent EP3150637A1 (F. Hoffmann-La Roche AG, dated 2017)

Biological target: T1, human VEGFA-121 (VEFG-A-121-His) (human, UniProt P15692-9 27-147)
T1 construct: Captured on an anti-His antibody surface; not shown: His tag
T1 sequence (looked up): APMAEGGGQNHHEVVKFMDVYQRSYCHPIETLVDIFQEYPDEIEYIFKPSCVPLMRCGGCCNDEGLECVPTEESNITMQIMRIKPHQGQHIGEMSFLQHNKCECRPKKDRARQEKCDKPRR
Assay: SPR (Biacore T200), VEGF-A-121-His captured on anti-His, antibody in solution, Langmuir 1:1

koff: 6.11e-05 s⁻¹
B1: Ang2VEGF-0477 (bispecific antibody, human IgG1, kappa)
light 1: QPGLTQPPSVSVAPGQTARITCGGNNIGSKSVHWYQQKPGQAPVLVVYDDSDRPSGIPERFSGSNSGNTATLTISRVEAGDEADYYCQVWDSSSDHYVFGTGTKVTVLRTVAAPSVFIFPPSDEKLKSGTASVVCLLNNFYPREAKVQWKVDNALQSGNSQESVTEQDSKDSTYSLSSTLTLSKADYEKHKVYACEVTHQGLSSPVTKSFNRGEC
heavy 1: not shown
light 2: DIQMTQSPSSLSASVGDRVTITCSASQDISNYLNWYQQKPGKAPKVLIYFTSSLHSGVPSRFSGSGSGTDFTLTISSLQPEDFATYYCQQYSTVPWTFGQGTKVEIKSSASTKGPSVFPLAPSSKSTSGGTAALGCLVKDYFPEPVTVSWNSGALTSGVHTFPAVLQSSGLYSLSSVVTVPSSSLGTQTYICNVNHKPSNTKVDKKVEPKSC
heavy 2: not shown
notes: Bivalent bispecific CrossMAb CH1-CL
